According to publication PMC12147903:

What was measured:
[1] = molecular target: E3 ubiquitin ligase zinc RING finger 3 (Znrf3) (mouse (endogenous in MIN6)) (UniProt Q5SSZ7)
[2] = molecular target: T1, leucine-rich repeat-containing G-protein coupled receptor 4 (Lgr4) (mouse (endogenous in MIN6)) (UniProt A2ARI4)
T1 sequence: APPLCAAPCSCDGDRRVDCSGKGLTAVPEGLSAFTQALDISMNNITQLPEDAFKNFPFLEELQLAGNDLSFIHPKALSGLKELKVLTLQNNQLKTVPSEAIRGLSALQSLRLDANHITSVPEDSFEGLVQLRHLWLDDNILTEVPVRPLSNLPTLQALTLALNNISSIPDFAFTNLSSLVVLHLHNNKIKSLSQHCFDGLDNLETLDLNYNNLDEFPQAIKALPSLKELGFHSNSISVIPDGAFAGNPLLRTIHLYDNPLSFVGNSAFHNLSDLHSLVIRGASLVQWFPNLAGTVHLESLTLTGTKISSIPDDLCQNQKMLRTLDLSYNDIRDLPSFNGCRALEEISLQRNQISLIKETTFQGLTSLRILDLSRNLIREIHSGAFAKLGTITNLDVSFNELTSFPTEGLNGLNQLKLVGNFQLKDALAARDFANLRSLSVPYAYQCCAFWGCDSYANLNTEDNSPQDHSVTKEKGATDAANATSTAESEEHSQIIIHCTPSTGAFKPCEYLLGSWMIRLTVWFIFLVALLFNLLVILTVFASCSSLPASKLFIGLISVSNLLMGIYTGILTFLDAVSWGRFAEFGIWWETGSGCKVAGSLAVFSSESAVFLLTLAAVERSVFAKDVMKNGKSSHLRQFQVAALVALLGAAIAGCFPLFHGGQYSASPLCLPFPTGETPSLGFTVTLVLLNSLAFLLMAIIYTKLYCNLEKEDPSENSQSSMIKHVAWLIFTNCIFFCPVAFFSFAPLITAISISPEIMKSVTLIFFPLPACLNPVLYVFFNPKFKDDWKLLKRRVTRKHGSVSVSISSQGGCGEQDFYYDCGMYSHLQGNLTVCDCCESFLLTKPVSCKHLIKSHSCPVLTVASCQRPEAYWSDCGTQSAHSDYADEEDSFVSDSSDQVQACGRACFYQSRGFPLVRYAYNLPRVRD

Chain of human RSPO1 (Q2MKA7 21-263): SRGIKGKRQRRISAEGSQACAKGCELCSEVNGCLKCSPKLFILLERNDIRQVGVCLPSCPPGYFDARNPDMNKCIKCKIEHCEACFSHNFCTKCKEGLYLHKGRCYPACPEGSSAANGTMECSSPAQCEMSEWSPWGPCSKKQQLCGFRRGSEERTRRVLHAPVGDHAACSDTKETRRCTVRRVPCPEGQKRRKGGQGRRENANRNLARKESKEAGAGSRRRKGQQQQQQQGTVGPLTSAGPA
Chain of UniProt Q5SSZ7 (Q5SSZ7 53-913): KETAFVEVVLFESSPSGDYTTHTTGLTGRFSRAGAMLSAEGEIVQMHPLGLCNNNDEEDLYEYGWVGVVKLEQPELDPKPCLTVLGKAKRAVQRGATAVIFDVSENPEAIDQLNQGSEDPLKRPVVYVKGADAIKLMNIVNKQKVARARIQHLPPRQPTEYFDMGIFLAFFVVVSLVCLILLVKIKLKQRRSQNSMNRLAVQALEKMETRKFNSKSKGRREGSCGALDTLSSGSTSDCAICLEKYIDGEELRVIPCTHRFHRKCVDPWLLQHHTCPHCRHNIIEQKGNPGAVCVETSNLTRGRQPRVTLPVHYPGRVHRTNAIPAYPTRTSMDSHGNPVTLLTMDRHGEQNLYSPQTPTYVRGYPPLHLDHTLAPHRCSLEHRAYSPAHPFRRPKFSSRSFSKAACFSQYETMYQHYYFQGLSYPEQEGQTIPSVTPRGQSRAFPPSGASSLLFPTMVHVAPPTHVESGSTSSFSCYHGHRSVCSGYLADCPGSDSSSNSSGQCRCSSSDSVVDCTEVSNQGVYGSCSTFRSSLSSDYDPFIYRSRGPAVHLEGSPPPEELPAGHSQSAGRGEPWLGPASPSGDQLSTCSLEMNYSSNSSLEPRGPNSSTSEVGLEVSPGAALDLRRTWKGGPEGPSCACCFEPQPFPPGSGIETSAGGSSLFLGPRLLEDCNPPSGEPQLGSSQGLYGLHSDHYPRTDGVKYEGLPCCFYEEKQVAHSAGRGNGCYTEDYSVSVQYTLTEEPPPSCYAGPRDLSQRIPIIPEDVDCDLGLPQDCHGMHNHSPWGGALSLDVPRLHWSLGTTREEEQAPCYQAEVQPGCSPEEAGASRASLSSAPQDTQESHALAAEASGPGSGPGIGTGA

“human RSPO1 (from UniProt Q2MKA7 21-263) (ligand)” was tested, and the MIN6 cell number after 24 h of incubation with increasing doses of human RSPO1, against controls [1] was 2.08 fold and the MIN6 cell number after 24 h of incubation with increasing doses of human RSPO1, against controls [2] was 2.08 fold.
